Molecular target: each recombinant exocyst subunit
Test: pull-down; MBP or MBP-tagged proteins immobilised on amylose resin; equimolar purified Sec10(145–827) (1 µM) added; 10 mM HEPES pH 7, 100 mM NaCl, 0.1% NP-40, 1 mM DTT; 1 h at 4°C; three washes; Western blot with α-His5 and α-MBP

percent bound: 10 to 20%
B1: Sec10(145–827) (domain or fragment)
chain: GDKLETAIKKKQNYIQSVELIRRYNDFYSMGKSDIVEQLRLSKNWKLNLKSVKLMKNLLILSSKLETSSIPKTINTKLVIEKYSEMMENELLENFNSAYRENNFTKLNEIAIILNNFNGGVNVIQSFINQHDYFIDTKQIDLENEFENVFIKNVKFKEQLIDFENHSVIIETSMQNLINDVETVIKNESKIVKRVFEEKATHVIQLFIQRVFAQKIEPRFEVLLRNSLSISNLAYVRILHGLFTLFGKFTKSLIDYFQLLEIDDSNQILSTTLEQCFADLFSHYLYDRSKYFGIEKRSLEAILVDMTSKFTVNYDKEINKRVLLDKYKEKLSTNVDAFMHSPRGNTHSRQDSTSRSKLSQFNSFLKTHLDKDHLSLNRTNTLSDSFNNSSSSTQYDVANNSSSLVNSSFTASDIDNSPNSPANYSLNDVDSMLKCVVESTARVMELIPNKAHLYILEILKIMFLGIVDSYMEIALEVAYWKICKVDINKTAGVVNLNFLKFISMSTEILDLLSISIKSIFLPLLNNSPEIKAQIIEMTNSQIQKMEILINIILQETITVISTKFSAILCKQKKKDFVPKSQELLDQDTLPAIEIVNILNLIFEQSSKFLKGKNLQTFLTLIGEELYGLLLSHYSHFQVNSIGGVVVTKDIIGYQTAIEDWGVASLIDKFATLRELANLFTVQP

— article PMC2635961
